Assay results from the supplement of paper PMC10567573.

B1: CD69 (parent)
chain: FVAENSSLHPESGQENDATSPHFS

Variants of: B1
Test: protein stability index of a GFP-peptide fusion (GPS, HEK-293T) (PSI 1-6); higher = more stable
Conditions: c terminus: a fixed tail appended
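Note: lentivirally expressed fusions sorted by FACS into six bins by GFP to DsRed ratio, PSI derived from sequencing read proportions per bin multiplied by bin number.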

| Variant | protein stability index |
| --- | --- |
| FVAENSSLHEESGQENDATSPHFS [P10E] | 3.54 |
| FVAENSSLHLESGQENDATSPHFS [P10L] | 2.9 |
| FVAENSSLHHESGQENDATSPHFS [P10H] | 3.61 |
| FVAENSSLHCESGQENDATSPHFS [P10C] | 2.84 |
| FVAENSSLHSESGQENDATSPHFS [P10S] | 2.52 |
| FVAENSSLHNESGQENDATSPHFS [P10N] | 3.63 |
| FVAENSSLHIESGQENDATSPHFS [P10I] | 3.23 |
| FVAENSSLHRESGQENDATSPHFS [P10R] | 2.56 |
| FVAENSSLHFESGQENDATSPHFS [P10F] | 2.48 |
| FVAENSSLHVESGQENDATSPHFS [P10V] | 3.22 |
| FVAENSSLHAESGQENDATSPHFS [P10A] | 3.06 |
| FVAENSSLHWESGQENDATSPHFS [P10W] | 2.43 |
| FVAENSSLHDESGQENDATSPHFS [P10D] | 3.32 |
| FVAENSSLHKESGQENDATSPHFS [P10K] | 2.98 |
| FVAENSSLHTESGQENDATSPHFS [P10T] | 3.13 |
| FVAENSSLHQESGQENDATSPHFS [P10Q] | 3.45 |
| FVAENSSLHMESGQENDATSPHFS [P10M] | 2.46 |
| FVAENSSLHGESGQENDATSPHFS [P10G] | 3.29 |
| FVAENSSLHYESGQENDATSPHFS [P10Y] | 3.15 |
| FVAENSSLHPESGQFNDATSPHFS [E15F] | 1.91 |
| FVAENSSLHPESGQQNDATSPHFS [E15Q] | 3.05 |
| FVAENSSLHPESGQKNDATSPHFS [E15K] | 2.76 |
| FVAENSSLHPESGQCNDATSPHFS [E15C] | 2.57 |
| FVAENSSLHPESGQVNDATSPHFS [E15V] | 2.67 |

| Variant | protein stability index |
| --- | --- |
| FVAENSSLHPESGQTNDATSPHFS [E15T] | 2.78 |
| FVAENSSLHPESGQGNDATSPHFS [E15G] | 2.59 |
| FVAENSSLHPESGQYNDATSPHFS [E15Y] | 2.08 |
| FVAENSSLHPESGQPNDATSPHFS [E15P] | 2.32 |
| FVAENSSLHPESGQWNDATSPHFS [E15W] | 1.95 |
| FVAENSSLHPESGQMNDATSPHFS [E15M] | 2.83 |
| FVAENSSLHPESGQSNDATSPHFS [E15S] | 2.11 |
| FVAENSSLHPESGQHNDATSPHFS [E15H] | 2.76 |
| FVAENSSLHPESGQINDATSPHFS [E15I] | 2.51 |
| FVAENSSLHPESGQANDATSPHFS [E15A] | 2.88 |
| FVAENSSLHPESGQDNDATSPHFS [E15D] | 3.06 |
| FVAENSSLHPESGQLNDATSPHFS [E15L] | 2.12 |
| FVAENSSLHPESGQRNDATSPHFS [E15R] | 2.19 |
| FVAENSSLHPESGQNNDATSPHFS [E15N] | 2.6 |
| FVAENSSLHPEKGQENDATSPHFS [S12K] | 2.66 |
| FVAENSSLHPECGQENDATSPHFS [S12C] | 2.73 |
| FVAENSSLHPETGQENDATSPHFS [S12T] | 3.14 |
| FVAENSSLHPEQGQENDATSPHFS [S12Q] | 2.88 |
| FVAENSSLHPEIGQENDATSPHFS [S12I] | 2.86 |
| FVAENSSLHPELGQENDATSPHFS [S12L] | 2.46 |
| FVAENSSLHPEGGQENDATSPHFS [S12G] | 2.9 |
| FVAENSSLHPEDGQENDATSPHFS [S12D] | 3.25 |
| FVAENSSLHPERGQENDATSPHFS [S12R] | 2.38 |
| FVAENSSLHPEEGQENDATSPHFS [S12E] | 3.83 |

| Variant | protein stability index |
| --- | --- |
| FVAENSSLHPEHGQENDATSPHFS [S12H] | 2.64 |
| FVAENSSLHPEPGQENDATSPHFS [S12P] | 3.39 |
| FVAENSSLHPEFGQENDATSPHFS [S12F] | 2.39 |
| FVAENSSLHPEVGQENDATSPHFS [S12V] | 3.42 |
| FVAENSSLHPEWGQENDATSPHFS [S12W] | 1.83 |
| FVAENSSLHPEMGQENDATSPHFS [S12M] | 2.87 |
| FVAENSSLHPEYGQENDATSPHFS [S12Y] | 2.39 |
| FVAENSSLHPENGQENDATSPHFS [S12N] | 3.05 |
| FVAENSSLHPEAGQENDATSPHFS [S12A] | 2.99 |
| FVAENSSLHPESGQEADATSPHFS [N16A] | 2.51 |
| FVAENSSLHPESGQECDATSPHFS [N16C] | 2.73 |
| FVAENSSFHPESGQENDATSPHFS [L8F] | 2.4 |
| FVAENSSCHPESGQENDATSPHFS [L8C] | 2.8 |
| FVAENSSDHPESGQENDATSPHFS [L8D] | 3.62 |
| FVAENSSKHPESGQENDATSPHFS [L8K] | 2.68 |
| FVAENSSPHPESGQENDATSPHFS [L8P] | 3.41 |
| FVAENSSYHPESGQENDATSPHFS [L8Y] | 2.28 |
| FVAENSSVHPESGQENDATSPHFS [L8V] | 3.01 |
| FVAENSSMHPESGQENDATSPHFS [L8M] | 3.06 |
| FVAENSSAHPESGQENDATSPHFS [L8A] | 3.41 |
| FVAENSSTHPESGQENDATSPHFS [L8T] | 3.64 |
| FVAENSSIHPESGQENDATSPHFS [L8I] | 3.24 |
| FVAENSSEHPESGQENDATSPHFS [L8E] | 3.86 |
| FVAENSSHHPESGQENDATSPHFS [L8H] | 3.04 |

| Variant | protein stability index |
| --- | --- |
| FVAENSSQHPESGQENDATSPHFS [L8Q] | 3.62 |
| FVAENSSRHPESGQENDATSPHFS [L8R] | 2.49 |
| FVAENSSWHPESGQENDATSPHFS [L8W] | 1.72 |
| FVAENSSNHPESGQENDATSPHFS [L8N] | 3.65 |
| FVAENSSSHPESGQENDATSPHFS [L8S] | 3.75 |
| FVAENSSGHPESGQENDATSPHFS [L8G] | 3.78 |
| FVAENSSLCPESGQENDATSPHFS [H9C] | 3.15 |
| FVAENSSLQPESGQENDATSPHFS [H9Q] | 3.5 |
| FVAENSSLEPESGQENDATSPHFS [H9E] | 4.49 |
| FVAENSSLWPESGQENDATSPHFS [H9W] | 1.61 |
| FVAENSSLAPESGQENDATSPHFS [H9A] | 3.38 |
| FVAENSSLTPESGQENDATSPHFS [H9T] | 3.7 |
| FVAENSSLYPESGQENDATSPHFS [H9Y] | 2.88 |
| FVAENSSLVPESGQENDATSPHFS [H9V] | 3.03 |
| FVAENSSLFPESGQENDATSPHFS [H9F] | 2.95 |
| FVAENSSLRPESGQENDATSPHFS [H9R] | 2.79 |
| FVAENSSLKPESGQENDATSPHFS [H9K] | 3.62 |
| FVAENSSLPPESGQENDATSPHFS [H9P] | 3.6 |
| FVAENSSLGPESGQENDATSPHFS [H9G] | 3.4 |
| FVAENSSLIPESGQENDATSPHFS [H9I] | 2.9 |
| FVAENSSLMPESGQENDATSPHFS [H9M] | 3.08 |
| FVAENSSLLPESGQENDATSPHFS [H9L] | 2.96 |
